Source: publication PMC6262872, “DARPins recognize mTFP1 as novel reagents for in vitro and in vivo protein manipulations” (Biology Open, 2018)

Target: T1, monomeric teal fluorescent protein 1 (mTFP1), N-terminally hexa-His-SBP-tagged
T1 construct: mTFP1, engineered monomeric teal fluorescent protein (Ai et al., 2006); PDB 2HQK is the cited mTFP1 structure; also called SBP-tagged mTFP1; source: E. coli BL21(DE3), purified (Ni-NTA)
Assay: fluorescence polarisation; fluorescence anisotropy; constant 15 nM mTFP1 titrated with a dilution series of DARPin; non-linear fit
Conditions: both partners purified

Kd: ~88 nM
B1: DARPin 1238_G01 (N-terminal His8, C-terminal FLAG) (designed binder)
chain: GSDLGKKLLEAARAGQDDEVRILMANGADVNAEDWMGATPLHLAAQSGHLEIVEVLLKTGADVNAHDAFGWTPLHLAASQGHLEIVEVLLKAGADVNATDMVGRTPLHLAARRGHLEIVEVLLKHGADVNAQDKFGKTPFDLAIDNGNEDIAEVLQKAAKLN
modifications: N-terminal MRGS-His8 and C-terminal FLAG tags left out; the GP cloning residues of the crystal construct are also left out
